Holding throughout (test): filter binding
One series concerns the target T1, R.MwoI S310D (Methanothermobacter wolfeii (DSMZ), UniProt O59646 1-363, S310D).
T1 sequence: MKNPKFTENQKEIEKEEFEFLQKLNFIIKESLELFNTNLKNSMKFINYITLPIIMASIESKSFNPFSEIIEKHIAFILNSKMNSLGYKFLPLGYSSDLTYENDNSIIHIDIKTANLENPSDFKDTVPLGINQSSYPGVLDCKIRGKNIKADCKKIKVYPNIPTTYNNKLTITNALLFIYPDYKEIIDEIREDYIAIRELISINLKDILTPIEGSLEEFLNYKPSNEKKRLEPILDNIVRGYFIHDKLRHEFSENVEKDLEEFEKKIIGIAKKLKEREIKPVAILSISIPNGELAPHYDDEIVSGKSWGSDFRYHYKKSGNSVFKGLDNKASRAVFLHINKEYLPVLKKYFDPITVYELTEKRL

A further series concerns the target T2, R.MwoI A330R (Methanothermobacter wolfeii (DSMZ), UniProt O59646 1-363, A330R).
T2 sequence: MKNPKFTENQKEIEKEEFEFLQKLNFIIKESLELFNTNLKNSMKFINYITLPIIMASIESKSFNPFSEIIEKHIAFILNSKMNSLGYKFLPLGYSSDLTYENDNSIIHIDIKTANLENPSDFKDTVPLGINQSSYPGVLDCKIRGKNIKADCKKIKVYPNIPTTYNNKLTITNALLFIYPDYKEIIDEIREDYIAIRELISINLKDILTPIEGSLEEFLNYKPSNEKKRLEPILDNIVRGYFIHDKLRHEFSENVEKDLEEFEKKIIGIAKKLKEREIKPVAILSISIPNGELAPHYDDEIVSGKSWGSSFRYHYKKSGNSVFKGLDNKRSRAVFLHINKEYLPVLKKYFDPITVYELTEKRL

The next series concerns the target T3, R.MwoI D110A (Methanothermobacter wolfeii (DSMZ), UniProt O59646 1-363, D110A).
T3 sequence: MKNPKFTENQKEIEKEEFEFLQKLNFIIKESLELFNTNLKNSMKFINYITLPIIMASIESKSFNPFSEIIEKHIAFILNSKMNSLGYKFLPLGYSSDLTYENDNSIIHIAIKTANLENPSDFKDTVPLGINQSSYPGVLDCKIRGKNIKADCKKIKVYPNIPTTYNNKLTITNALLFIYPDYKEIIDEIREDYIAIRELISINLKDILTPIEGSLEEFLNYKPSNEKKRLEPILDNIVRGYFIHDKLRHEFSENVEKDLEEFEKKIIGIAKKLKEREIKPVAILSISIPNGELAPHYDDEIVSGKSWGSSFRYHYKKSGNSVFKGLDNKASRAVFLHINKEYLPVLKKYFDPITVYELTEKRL

The next series addresses T4, R.MwoI E68A (Methanothermobacter wolfeii (DSMZ), UniProt O59646 1-363, E68A).
T4 sequence: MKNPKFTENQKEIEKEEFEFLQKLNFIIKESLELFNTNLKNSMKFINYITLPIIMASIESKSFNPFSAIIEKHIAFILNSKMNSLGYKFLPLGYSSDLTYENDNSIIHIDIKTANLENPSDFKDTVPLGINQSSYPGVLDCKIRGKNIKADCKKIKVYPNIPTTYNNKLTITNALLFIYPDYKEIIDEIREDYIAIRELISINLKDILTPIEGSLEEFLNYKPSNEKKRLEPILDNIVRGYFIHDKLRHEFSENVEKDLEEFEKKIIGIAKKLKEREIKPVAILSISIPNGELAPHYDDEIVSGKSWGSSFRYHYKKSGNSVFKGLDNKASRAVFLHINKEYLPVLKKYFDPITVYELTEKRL

The next series has as its target T5, R.MwoI T125R (Methanothermobacter wolfeii (DSMZ), UniProt O59646 1-363, T125R).
T5 sequence: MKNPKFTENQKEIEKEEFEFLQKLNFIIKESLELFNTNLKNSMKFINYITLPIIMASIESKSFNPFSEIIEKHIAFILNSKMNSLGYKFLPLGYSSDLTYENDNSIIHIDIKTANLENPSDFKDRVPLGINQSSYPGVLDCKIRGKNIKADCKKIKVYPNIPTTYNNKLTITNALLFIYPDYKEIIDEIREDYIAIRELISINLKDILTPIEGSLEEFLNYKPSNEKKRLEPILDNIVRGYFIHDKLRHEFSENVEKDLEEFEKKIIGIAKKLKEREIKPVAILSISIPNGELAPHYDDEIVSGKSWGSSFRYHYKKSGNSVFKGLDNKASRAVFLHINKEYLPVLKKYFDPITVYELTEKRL

The next series has as its target T6, R.MwoI S310A (Methanothermobacter wolfeii (DSMZ), UniProt O59646 1-363, S310A).
T6 sequence: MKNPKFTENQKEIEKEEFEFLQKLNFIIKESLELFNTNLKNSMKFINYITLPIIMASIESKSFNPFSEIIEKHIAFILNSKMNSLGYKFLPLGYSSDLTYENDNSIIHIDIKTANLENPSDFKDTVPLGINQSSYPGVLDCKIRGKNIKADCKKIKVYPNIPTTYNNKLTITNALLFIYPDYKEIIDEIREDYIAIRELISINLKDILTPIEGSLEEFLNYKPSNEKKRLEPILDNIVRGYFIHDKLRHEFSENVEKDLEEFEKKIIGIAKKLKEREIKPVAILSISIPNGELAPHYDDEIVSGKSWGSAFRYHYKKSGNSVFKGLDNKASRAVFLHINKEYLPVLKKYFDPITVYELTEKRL

A further series has as its target T7, R.MwoI K112A (Methanothermobacter wolfeii (DSMZ), UniProt O59646 1-363, K112A).
T7 sequence: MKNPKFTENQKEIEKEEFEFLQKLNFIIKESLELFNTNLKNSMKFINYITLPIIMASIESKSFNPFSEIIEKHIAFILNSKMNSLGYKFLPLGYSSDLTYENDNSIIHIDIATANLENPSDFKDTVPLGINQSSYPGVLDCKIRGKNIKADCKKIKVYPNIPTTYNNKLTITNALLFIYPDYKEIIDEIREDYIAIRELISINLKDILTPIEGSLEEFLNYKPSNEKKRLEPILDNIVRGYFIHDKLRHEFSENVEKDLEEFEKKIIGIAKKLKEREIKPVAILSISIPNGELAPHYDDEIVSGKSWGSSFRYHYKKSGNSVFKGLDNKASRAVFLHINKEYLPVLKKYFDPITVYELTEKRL

Another series has as its target T8, R.MwoI S310K (Methanothermobacter wolfeii (DSMZ), UniProt O59646 1-363, S310K).
T8 sequence: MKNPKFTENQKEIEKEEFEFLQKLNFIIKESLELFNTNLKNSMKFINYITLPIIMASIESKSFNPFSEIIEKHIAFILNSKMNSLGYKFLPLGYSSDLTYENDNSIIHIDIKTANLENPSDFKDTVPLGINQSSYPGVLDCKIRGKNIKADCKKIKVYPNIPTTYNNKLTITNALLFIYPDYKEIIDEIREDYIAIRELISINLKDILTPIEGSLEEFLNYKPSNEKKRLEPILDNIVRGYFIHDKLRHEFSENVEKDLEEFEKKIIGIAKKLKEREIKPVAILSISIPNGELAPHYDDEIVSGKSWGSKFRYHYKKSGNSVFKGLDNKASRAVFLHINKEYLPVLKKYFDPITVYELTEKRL

B1: A/T (GCAN5TGC) (dsDNA)
DNA 1: GACAGTGCAATCTCTGCGACAGT
DNA 2: ACTGTCGCAGAGATTGCACTGTC
Take B1: the binding result with R.MwoI S310D is listed as “binds”.

B2: G/C (GCGN5CGC) (dsDNA)
DNA 1: GACAGTGCGATCTCCGCGACAGT
DNA 2: ACTGTCGCGGAGATCGCACTGTC
As for B2, the binding result with R.MwoI S310D was “binds”.

B3: MwoI target oligonucleotide (dsDNA)
DNA 1: CGGCTGTAGTCGCAC
DNA 2: GTGCGACTACAGCCG
In the case of B3, the binding signal with R.MwoI A330R is > 350 % of wt; with R.MwoI D110A it was 25 % of wt; in the series with R.MwoI E68A it was > 350 % of wt; with R.MwoI T125R, 42 % of wt; in the series with R.MwoI S310A, 53 % of wt; in the series with R.MwoI K112A, 114 % of wt.

B4: C/G (GCCN5GGC) (dsDNA)
DNA 1: GACAGTGCCATCTCGGCGACAGT
DNA 2: ACTGTCGCCGAGATGGCACTGTC
Consider B4, for which the binding result with R.MwoI S310K is recorded as “binds”.

Values taken from article PMC3458533.
